Test results from publication PMC8765430, “MdaB and NfrA, Two Novel Reductases Important in the Survival and Persistence of the Major Enteropathogen Campylobacter jejuni” (Journal of Bacteriology, 2022).

What was measured:
MdaB (MdaBhis6) = molecular target: T1, MdaB (MdaBhis6) (Campylobacter jejuni, UniProt Q0P880); test: NADPH oxidation at […] nm; format: biochemical; conditions: 0.2 mM quinone substrates; 200 μM NADPH; 50 mM Tris-HCl, 100 mM NaCl, 10% DMSO; pH ~7.5; 37°C; anaerobic
T1 construct: gene Cj1545c; recombinant His6-tagged (pET21a+), E. coli BL21(DE3), Ni-NTA
T1 sequence (Q0P880 entry or part of it): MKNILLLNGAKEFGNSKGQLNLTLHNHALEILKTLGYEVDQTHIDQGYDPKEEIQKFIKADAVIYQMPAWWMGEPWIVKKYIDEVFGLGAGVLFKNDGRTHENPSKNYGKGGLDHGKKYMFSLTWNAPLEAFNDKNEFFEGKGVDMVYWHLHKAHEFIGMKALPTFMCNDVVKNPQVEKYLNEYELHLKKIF

NfrA (NfrAhis6) = molecular target: T2, NfrA (NfrAhis6) (Campylobacter jejuni, UniProt Q0P871); test: NADPH oxidation at […] nm; format: biochemical; conditions: riboflavin as acceptor; pH ~7.5
T2 construct: gene Cj1555c; recombinant His6-tagged (pET21a+), E. coli BL21(DE3), Ni-NTA
T2 sequence (Q0P871 entry or part of it): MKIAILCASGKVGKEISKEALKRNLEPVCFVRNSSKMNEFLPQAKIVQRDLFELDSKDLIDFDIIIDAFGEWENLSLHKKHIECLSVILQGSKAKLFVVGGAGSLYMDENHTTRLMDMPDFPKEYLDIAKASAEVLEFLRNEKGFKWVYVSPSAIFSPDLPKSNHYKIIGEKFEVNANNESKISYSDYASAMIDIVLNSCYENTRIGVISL

RrpA [1] = molecular target: T3, RrpA (Campylobacter jejuni, UniProt Q0P879 1-115); test: EMSA; 0.05 ug protein, 50 nM DNA; EMSA: Odyssey infrared EMSA kit, 50 nM probe, 20 ul, 6% gel at 4 C. Footprinting: 10 mM Tris-HCl pH 8.5, 30 mM K-glutamate, 1 mM DTT, 5 mM Mg acetate, 2 mM CaCl2, 0.125 mg/ml BSA, 30% glycerol, 25 C; conditions: protein: recombinant; tags: C-terminal His6 (pET21a); chain copies: 2; label: 5' IRDye 800
T3 sequence: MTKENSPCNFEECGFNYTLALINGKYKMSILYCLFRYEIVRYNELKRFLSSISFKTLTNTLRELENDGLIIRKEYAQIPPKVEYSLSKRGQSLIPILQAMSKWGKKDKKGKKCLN

RrpA [2] = molecular target: T3, RrpA; test: EMSA; EMSA: Odyssey infrared EMSA kit, 50 nM probe, 20 ul, 6% gel at 4 C. Footprinting: 10 mM Tris-HCl pH 8.5, 30 mM K-glutamate, 1 mM DTT, 5 mM Mg acetate, 2 mM CaCl2, 0.125 mg/ml BSA, 30% glycerol, 25 C; conditions: protein: recombinant; tags: C-terminal His6 (pET21a); chain copies: 2
RrpB [3] = molecular target: T4, RrpB (Campylobacter jejuni, UniProt Q0P870 1-110); test: as above; conditions: protein: recombinant; tags: C-terminal His6 (pET21a); chain copies: 2
T4 sequence: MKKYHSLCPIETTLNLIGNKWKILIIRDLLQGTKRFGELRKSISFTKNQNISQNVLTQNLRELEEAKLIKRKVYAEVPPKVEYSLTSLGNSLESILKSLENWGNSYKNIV

RrpB [4] = molecular target: T4, RrpB; test: EMSA; DTT (higher complex); EMSA: Odyssey infrared EMSA kit, 50 nM probe, 20 ul, 6% gel at 4 C. Footprinting: 10 mM Tris-HCl pH 8.5, 30 mM K-glutamate, 1 mM DTT, 5 mM Mg acetate, 2 mM CaCl2, 0.125 mg/ml BSA, 30% glycerol, 25 C; conditions: protein: recombinant; tags: C-terminal His6 (pET21a); chain copies: 2; label: 5' IRDye 800

Molecule: NC(=O)C1=CN([C@@H]2O[C@H](COP(=O)(O)OP(=O)(O)OC[C@H]3O[C@@H](n4cnc5c(N)ncnc54)[C@H](OP(=O)(O)O)[C@@H]3O)[C@@H](O)[C@H]2O)C=CC1 [NADPH]
- specific activity (MdaB (MdaBhis6)): reductase activity of MdaB was determined by monitoring the oxidation of NADPH
- specific activity (NfrA (NfrAhis6)): This was indicative of NfrA’s preference for NADPH over NADH

B1: rrpAprobe (dsDNA)
DNA 1: GCATAATATCATTTTCAATACAGAAAATAAAGTAATATACTATACTAAAGGAATGTTAAATGA
DNA 2: TCATTTAACATTCCTTTAGTATAGTATATTACTTTATTTTCTGTATTGAAAATGATATTATGC
- binding result (RrpA [1]): binds

B2: rrpA (-1) (dsDNA)
DNA 1: GCATAATATCATTTTCAATACAGAAAATAAAGTAATATCGAGCACTAAAGGAATGTTAAATGA
DNA 2: TCATTTAACATTCCTTTAGTGCTCGATATTACTTTATTTTCTGTATTGAAAATGATATTATGC
- binding result (RrpA [2]): binds

B3: rrpB (-2) (dsDNA)
DNA 1: TTAAAAAATATGCGGATCTTTTAAAAAATAAGGATCGGATCTGAAAAAATAT
DNA 2: ATATTTTTTCAGATCCGATCCTTATTTTTTAAAAGATCCGCATATTTTTTAA
- binding result (RrpB [3]): no binding

B4: mdaBprobe (dsDNA)
DNA 1: AAATTTAAAATACTATGTTAATATTGAATCGTATTATAGTAAAAGTT
DNA 2: AACTTTTACTATAATACGATTCAATATTAACATAGTATTTTAAATTT
- binding result (RrpA [1]): binds

B5: rrpBprobe (rrpB WT) (dsDNA)
DNA 1: TTAAAAAATATGTTATAATTTTAAAAAATAAGGATTTATAATGAAAAAATAT
DNA 2: ATATTTTTTCATTATAAATCCTTATTTTTTAAAATTATAACATATTTTTTAA
- binding result (RrpB [4]): binds

B6: rrpB (-1) (dsDNA)
DNA 1: TTAAAAAATATGTTATAATTTTAAAAAATAAGGATCGGATCTGAAAAAATAT
DNA 2: ATATTTTTTCAGATCCGATCCTTATTTTTTAAAATTATAACATATTTTTTAA
- binding result (RrpB [3]): binds

B7: nfrAprobe (dsDNA)
DNA 1: TAGATCTTTAATATTTATATAAATGATGATTTTTAGTTCATCTATAATAAAATATTATATCA
DNA 2: TGATATAATATTTTATTATAGATGAACTAAAAATCATCATTTATATAAATATTAAAGATCTA
- binding result (RrpB [4]): binds

B8: rrpA WT (Fig. S1) (dsDNA)
DNA 1: GCATATAATATCATTTTCAATACAGAAAATAAAGTAATATACTATACTAAAGGAATGTTAAATGA
DNA 2: TCATTTAACATTCCTTTAGTATAGTATATTACTTTATTTTCTGTATTGAAAATGATATTATATGC
- binding result (RrpA [2]): binds

B9: rrpA (-2) (dsDNA)
DNA 1: GCATAATCGAGCTTTCAATACAGAAAATAAAGTAATATCGAGCACTAAAGGAATGTTAAATGA
DNA 2: TCATTTAACATTCCTTTAGTGCTCGATATTACTTTATTTTCTGTATTGAAAGCTCGATTATGC
- binding result (RrpA [2]): no binding
